Measurements taken from US20240400715A1 (VIBRANT PHARMA, published 2024).

Tests used:
[1] = target: T1, human CD3ε/δ (ACRO systems, CDD-H52W1) (human, UniProt P07766 23-126; P04234 22-105); experiment: serum-stability ELISA, Day 6 vs Day 0
T1 construct: bought recombinant heterodimer; also called human CD3 epsilon/delta; Human CD3ε/CD3δ
Experimental: (§1) The samples to be tested were centrifuged at 4° C. at 12000 rpm for 30 minutes to remove the precipitate. 200 μl of each sample to be tested (0.5 mg/ml) was collected in a 1.5 ml Eppendorf tube. An equal volume of human serum (GEMINI, H2OYOOK) was added, mixed thoroughly, and the mixture was incubated in a 37° C. constant temperature CO₂ incubator. For a total of 10 days, 40 μl samples was aspirated every day and stored at −20° C.
(§2) Enzyme-linked immunosorbent assay (ELISA) was used to test the bispecific antibodies' binding to human CEA and human CD3 epsilon/delta antigen. The steps are as follows: the antigen human CD3ε/δ (ACRO systems, CDD-H52W1) and the recombinant tumor antigen human CEA (CEACAM-5/CD66e, ACRO systems, CE5-H5226) were diluted to 1 μg/ml with PBS, and then added to the 96-well plate at 100 μl per well. The wells were coated overnight at 4° C. After washing 3 times with 0.05% PBST, 200 μl 5% skimmed milk powder was added to each well and incubated at 37° C. for 2 h. After washing 3 times with 0.05% PBST, 100 μl primary antibody sample (10 μg/ml) was added to each well, and incubated at 37° C. for 2 h. After washing 3 times with 0.05% PBST, 100 μl (1:6000) diluted secondary antibody goat anti-human Fc-HRP (sigma, A2170) was added to each well, incubated at room temperature for 1 h. After washing 8 times with 0.05% PBST, 50 μl TMB color developing solution was added to each well, and incubated at room temperature for 10-15 min. 50 μl 1 mM HCl was added to each well to stop the color development. 450 nm Absorbance (OD) was read.
(§3) The binding of antibodies to antigen was calculated according to the following formula: Binding (%)=[(ODdayn−ODb)/(ODday0−ODb)]×100%. ODdayn: experimental well (the protein was stored in the serum for n days); ODday0: control well (the protein was not stored in the serum); ODb: blank well (no primary antibody added).

[2] = target: T1, human CD3ε/δ (ACRO systems, CDD-H52W1); experiment: serum-stability ELISA, Day 9 vs Day 0
Experimental: as §1, §2, §3

[3] = target: T1, human CD3ε/δ (ACRO systems, CDD-H52W1); experiment: serum-stability ELISA, Day 0 (reference)
[4] = target: T1, human CD3ε/δ (ACRO systems, CDD-H52W1); experiment: serum-stability ELISA, Day 1 vs Day 0
Experimental: as §1, §2, §3

[5] = target: T1, human CD3ε/δ (ACRO systems, CDD-H52W1); experiment: serum-stability ELISA, Day 7 vs Day 0
Experimental: as §1, §2, §3

[6] = target: T1, human CD3ε/δ (ACRO systems, CDD-H52W1); experiment: serum-stability ELISA, Day 10 vs Day 0
Experimental: as §1, §2, §3

[7] = target: T1, human CD3ε/δ (ACRO systems, CDD-H52W1); experiment: serum-stability ELISA, Day 5 vs Day 0
Experimental: as §1, §2, §3

[8] = target: T1, human CD3ε/δ (ACRO systems, CDD-H52W1); experiment: serum-stability ELISA, Day 2 vs Day 0
Experimental: as §1, §2, §3

Binder	Binding % [1]	Binding % [2]	Binding % [3]	Binding % [4]	Binding % [5]	Binding % [6]	Binding % [7]	Binding % [8]
305 (TA6), configuration of FIG. 1W (bispecific antibody, not shown: kappa light chain constant domain (CL)) heavy: EVQLVQSGAEVKKPGASVKVSCKASGYTFTNYYIHWVRQAPGQGLEWIGWIYPGDGNTKYNEKFKGRATLTADTSTSTAYLELSSLRSEDTAVYYCARDSYSNYYFDYWGQGTLVTVSSASTKGPSVFPLAPCSRSTSESTAALGCLVKDYFPEPVTVSWNSGALTSGVHTFPAVLQSSGLYSLSSVVTVPSSSLGTKTYTCNVDHKPSNTKVDKRVESKYGPPCPPCPAPEAAGGPSVFLFPPKPKDTLMISRTPEVTCVVVDVSQEDPEVQFNWYVDGVEVHNAKTKPREEQFNSTYRVVSVLTVLHQDWLNGKEYKCKVSNKGLPSSIEKTISKAKGQPREPQVYTLPPCQEEMTKNQVSLWCLVKGFYPSDIAVEWESNGQPENNYKTTPPVLDSDGSFFLYSRLTVDKSRWQEGNVFSCSVMHEALHNHYTQKSLSLSL EVQLVESGGGFVQAGESLTLSCTSSTLTFTPYRMAWYRQAPGKQRDLVADISSGDGRTTNYADFAKGRFTISRDNIKNTVFLRMTNLKPEDTAVYYCNTFVSFVGIARSWGQGTQVTVSSESKYGPPCPPCPAPEAAGGPSVFLFPPKPKDTLMISRTPEVTCVVVDVSQEDPEVQFNWYVDGVEVHNAKTKPREEQFNSTYRVVSVLTVLHQDWLNGKEYKCKVSNKGLPSSIEKTISKAKGQPREPQVCTLPPSQEEMTKNQVSLSCAVKGFYPSDIAVEWESNGQPENNYKTTPPVLDSDGSFFLVSRLTVDKSRWQEGNVFSCSVMHEALHNRFTQKSLSLSL light: DIVMTQSPDSLAVSLGERATINCKSSQSLLNSRTRKNYLAWYQQKPGQPPKLLIYWASTRESGVPDRFSGSGSGTDFTLTISSLQAEDVAVYYCTQSFILRTFGQGTKVEIK	111%	109%	100%	112%	110%	108%	110%	109%
306 (TA7), configuration of FIG. 1W (bispecific antibody, not shown: kappa light chain constant domain (CL)) heavy: EVQLVQSGAEVKKPGASVKVSCKASGFTFTSYYIHWVRQAPGQGLEWIGWIYPENDNTKYNEKFKDRVTITADTSTSTAYLELSSLRSEDTAVYYCARDGYSRYYFDYWGQGTLVTVSSASTKGPSVFPLAPCSRSTSESTAALGCLVKDYFPEPVTVSWNSGALTSGVHTFPAVLQSSGLYSLSSVVTVPSSSLGTKTYTCNVDHKPSNTKVDKRVESKYGPPCPPCPAPEAAGGPSVFLFPPKPKDTLMISRTPEVTCVVVDVSQEDPEVQFNWYVDGVEVHNAKTKPREEQFNSTYRVVSVLTVLHQDWLNGKEYKCKVSNKGLPSSIEKTISKAKGQPREPQVYTLPPCQEEMTKNQVSLWCLVKGFYPSDIAVEWESNGQPENNYKTTPPVLDSDGSFFLYSRLTVDKSRWQEGNVFSCSVMHEALHNHYTQKSLSLSL EVQLVESGGGFVQAGESLTLSCTSSTLTFTPYRMAWYRQAPGKQRDLVADISSGDGRTTNYADFAKGRFTISRDNIKNTVFLRMTNLKPEDTAVYYCNTFVSFVGIARSWGQGTQVTVSSESKYGPPCPPCPAPEAAGGPSVFLFPPKPKDTLMISRTPEVTCVVVDVSQEDPEVQFNWYVDGVEVHNAKTKPREEQFNSTYRVVSVLTVLHQDWLNGKEYKCKVSNKGLPSSIEKTISKAKGQPREPQVCTLPPSQEEMTKNQVSLSCAVKGFYPSDIAVEWESNGQPENNYKTTPPVLDSDGSFFLVSRLTVDKSRWQEGNVFSCSVMHEALHNRFTQKSLSLSL light: DIVMTQSPDSLAVSLGERATINCKSSQSLLNSRTRKNYLAWYQQKPGQSPKLLIYWTSTRKSGVPDRFSGSGSGTDFTLTISSLQAEDVAVYYCKQSFILRTFGQGTKVEIK	101%	95.1%	100%	112%	105%	112%	115%	110%
308 (TA3), configuration of FIG. 1X (bispecific antibody, not shown: kappa light chain constant domain (CL)) heavy: EVQLVESGGGLVQPGGSLRLSCAASGYSFTGYTMNWVRQAPGKGLEWVALINPYKGVSTYNQKFKDRFTISVDKSKNTAYLQMNSLRAEDTAVYYCARSGYYGDSDWYFDVWGQGTLVTVSSASTKGPSVFPLAPCSRSTSESTAALGCLVKDYFPEPVTVSWNSGALTSGVHTFPAVLQSSGLYSLSSVVTVPSSSLGTKTYTCNVDHKPSNTKVDKRVESKYGPPCPPCPAPEAAGGPSVFLFPPKPKDTLMISRTPEVTCVVVDVSQEDPEVQFNWYVDGVEVHNAKTKPREEQFNSTYRVVSVLTVLHQDWLNGKEYKCKVSNKGLPSSIEKTISKAKGQPREPQVYTLPPCQEEMTKNQVSLWCLVKGFYPSDIAVEWESNGQPENNYKTTPPVLDSDGSFFLYSRLTVDKSRWQEGNVFSCSVMHEALHNHYTQKSLSLSLGGGGSGGGGSEVQLVESGGGFVQAGESLTLSCTSSTLTFTPYRMAWYRQAPGKQRDLVADISSGDGRTTNYADFAKGRFTISRDNIKNTVFLRMTNLKPEDTAVYYCNTFVSFVGIARSWGQGTQVTVSS ESKYGPPCPPCPAPEAAGGPSVFLFPPKPKDTLMISRTPEVTCVVVDVSQEDPEVQFNWYVDGVEVHNAKTKPREEQFNSTYRVVSVLTVLHQDWLNGKEYKCKVSNKGLPSSIEKTISKAKGQPREPQVCTLPPSQEEMTKNQVSLSCAVKGFYPSDIAVEWESNGQPENNYKTTPPVLDSDGSFFLVSRLTVDKSRWQEGNVFSCSVMHEALHNRFTQKSLSLSL light: DIQMTQSPSSLSASVGDRVTITCRASQDIRNYLNWYQQKPGKAPKLLIYYTSRLESGVPSRFSGSGSGTDYTLTISSLQPEDFATYYCQQGNTLPWTFGQGTKVEIK	103%	110%	100%	106%	109%	103%	107%	100%

More lines, now with the values ahead:

Binding % [1]	Binding % [2]	Binding % [3]	Binding % [4]	Binding % [5]	Binding % [6]	Binding % [7]	Binding % [8]	Binder
104%	100%	100%	105%	101%	101%	103%	105%	311 (TA6), configuration of FIG. 1X (bispecific antibody, not shown: kappa light chain constant domain (CL)) heavy: EVQLVQSGAEVKKPGASVKVSCKASGYTFTNYYIHWVRQAPGQGLEWIGWIYPGDGNTKYNEKFKGRATLTADTSTSTAYLELSSLRSEDTAVYYCARDSYSNYYFDYWGQGTLVTVSSASTKGPSVFPLAPCSRSTSESTAALGCLVKDYFPEPVTVSWNSGALTSGVHTFPAVLQSSGLYSLSSVVTVPSSSLGTKTYTCNVDHKPSNTKVDKRVESKYGPPCPPCPAPEAAGGPSVFLFPPKPKDTLMISRTPEVTCVVVDVSQEDPEVQFNWYVDGVEVHNAKTKPREEQFNSTYRVVSVLTVLHQDWLNGKEYKCKVSNKGLPSSIEKTISKAKGQPREPQVYTLPPCQEEMTKNQVSLWCLVKGFYPSDIAVEWESNGQPENNYKTTPPVLDSDGSFFLYSRLTVDKSRWQEGNVFSCSVMHEALHNHYTQKSLSLSLGGGGSGGGGSEVQLVESGGGFVQAGESLTLSCTSSTLTFTPYRMAWYRQAPGKQRDLVADISSGDGRTTNYADFAKGRFTISRDNIKNTVFLRMTNLKPEDTAVYYCNTFVSFVGIARSWGQGTQVTVSS ESKYGPPCPPCPAPEAAGGPSVFLFPPKPKDTLMISRTPEVTCVVVDVSQEDPEVQFNWYVDGVEVHNAKTKPREEQFNSTYRVVSVLTVLHQDWLNGKEYKCKVSNKGLPSSIEKTISKAKGQPREPQVCTLPPSQEEMTKNQVSLSCAVKGFYPSDIAVEWESNGQPENNYKTTPPVLDSDGSFFLVSRLTVDKSRWQEGNVFSCSVMHEALHNRFTQKSLSLSL light: DIVMTQSPDSLAVSLGERATINCKSSQSLLNSRTRKNYLAWYQQKPGQPPKLLIYWASTRESGVPDRFSGSGSGTDFTLTISSLQAEDVAVYYCTQSFILRTFGQGTKVEIK
93.2%	90.3%	100%	96.1%	89.2%	101%	92.2%	90.2%	310 (TA5), configuration of FIG. 1X (bispecific antibody, VL row printed 'TAS VL', read as TA5 VL; full chains assembled from parts; not shown: kappa light chain constant domain (CL)) heavy: DVQLVQSGAEVKKPGASVKVSCKASGYTFTRYTMHWVRQAPGQGLEWIGYINPSRGYTNYADSVKGRFTITTDKSTSTAYMELSSLRSEDTATYYCARYYDDHYCLDYWGQGTTVTVSSASTKGPSVFPLAPCSRSTSESTAALGCLVKDYFPEPVTVSWNSGALTSGVHTFPAVLQSSGLYSLSSVVTVPSSSLGTKTYTCNVDHKPSNTKVDKRVESKYGPPCPPCPAPEAAGGPSVFLFPPKPKDTLMISRTPEVTCVVVDVSQEDPEVQFNWYVDGVEVHNAKTKPREEQFNSTYRVVSVLTVLHQDWLNGKEYKCKVSNKGLPSSIEKTISKAKGQPREPQVYTLPPCQEEMTKNQVSLWCLVKGFYPSDIAVEWESNGQPENNYKTTPPVLDSDGSFFLYSRLTVDKSRWQEGNVFSCSVMHEALHNHYTQKSLSLSLGGGGSGGGGSEVQLVESGGGFVQAGESLTLSCTSSTLTFTPYRMAWYRQAPGKQRDLVADISSGDGRTTNYADFAKGRFTISRDNIKNTVFLRMTNLKPEDTAVYYCNTFVSFVGIARSWGQGTQVTVSS ESKYGPPCPPCPAPEAAGGPSVFLFPPKPKDTLMISRTPEVTCVVVDVSQEDPEVQFNWYVDGVEVHNAKTKPREEQFNSTYRVVSVLTVLHQDWLNGKEYKCKVSNKGLPSSIEKTISKAKGQPREPQVCTLPPSQEEMTKNQVSLSCAVKGFYPSDIAVEWESNGQPENNYKTTPPVLDSDGSFFLVSRLTVDKSRWQEGNVFSCSVMHEALHNRFTQKSLSLSL light: DIVLTQSPATLSLSPGERATLSCRASQSVSYMNWYQQKPGKAPKRWIYDTSKVASGVPARFSGSGSGTDYSLTINSLEAEDAATYYCQQWSSNPLTFGGGTKVEIK
